The DeepSol protein solubility set

assay: soluble on expression in E. coli; label from the status in PepcDB or PDB records

Soluble on expression in E. coli, not soluble:
MGSDKIHHHHHHMSLILELKNISKHYPGVKALETVSLRLFSGEVHALLGENGAGKSTLVKVMTGAQSKDGGEIIFLNEKQHFNTPIEAQKIGISTVYQEVNLVPNLTVAQNLFLGHEPKRFGLIHFQKMYADARTVLTQFKLDIDVSAPLSSYSIAVQQLIAIARGVAMSAKVLVLDEPTASLDADEVQVLFGILNQLKQKGVAIVFITHFLDQVYQISDRITVLRNGRFIGEYLTSELPQPQLIEAMLGRSLQQHLVEKTSAEQTTNGTSAVLLSLEGVSVKGSIQSMNLTVPKGQAVGLAGLLGSGRSEVCNAVFGLDLLDSGSIHLAGKKLHLSHPVDAINAGIALCPEDRKVDGIIGPLSIRENIILALQARVGWWRCLSKTRQQEIAQFFIDKLQIATPDADKPIEQLSGGNQQKVILARWLAIEPILLVLDEPTRGIDIGAHAEIIKLIRTLCDDGMSLLVASSELDELVAFSNKVVVLRDRYAVRELSGSELTSQHVMQAIAEG, MGSDKIHHHHHHMSLQISLVNNISQIGSQAWHALFGSEHPFTRYEYLLALESSGACSAQTGWQPRHLIVIEKAAVTENPHSAAAKTDNILALMPLYEKHHSYGEYVFDWAWAEAYERHGLAYYPKLLCAVPFTPVTGTRLAMDSRLDVGQQDAVWTAVVDFLQQQIMTQGYSSWHYLFTNATQSAVLAQAHLTPPSQSQSNQAQRNQTQALQPQANSQASAIKGQPIARLGTQFHWFNRGYRQFDDFLQVMTSRKRKNIQKERAAISKFELSFEFIHGDNITSSQWRSFSLCYQQTYLKRSGHTGYLNSEFFQAIGTSMADAIRLLRVSDKAGKDIAYALYFASDSRLYGRYWGAFEDIPGLHFEACYYQGIEYAIAQGLSCFDAGAQGEHKVLRGFEPIETHSFHAIAHEGFKGAIEDFCQQERRNMQIYMAEQAKNLPYKNSQ, MGSDKIHHHHHHMSLQRPDEKLKSDVLIGVGLRHQHFTEALTTPSNIDFVEVHSENFFAQGGATQSVLAQASEKYAISLHSTAMGLGSAQGVPSHYLQKLKQLASTCNPILMSDHACFSWSQLKGQQVHAGDLLPLAYSEQTLMVLSHNIDRVQQSLGRSLLVENLSAYIQYSHACMPETEFLVRLAELTGCKLLVDLNNIIVTANNINAAQPLDYAQQWLAEIPTDMVGEIHLAGFTEVKEGELIIDDHSQAVSSQGWQLYRSALERFGKIPTLVEWDNNLPSWHTLVAEADKARMIAKQVFGDNNSSKITTAMTGLESEFIHE, MGSDKIHHHHHHMSNLLEVNSLNVQFNYDETTVQAVKNVSFELRKKHILGIVGESGSGKSITAKSILGLLPDYPDHTLTGEIIFNGQSLNNLSTSALQQIRGKDISMIFQDPLSSLNPRLTIGKQITEVLFQHKRVSKSEAKSMTINILEKVGIKHATRQFDAYPHELSGGMRQRVMIAMALILKPQILIADEPTTALDASTQNQLLQLMKSLYEYTETSIIFITHDLGAVYQFCDDVIVMKDGSVVESGTVESIFKSPQHTYTKRLIDAIPDIHQTRPPRPLNNDILLKFDRVSVDYTSPSGSLYRAVNDINLAIRKGETLGIVGESGSGKSTLAKTVVGLKEVSEGFIWYNELPLSLFKDDELKSLRQEIQMIFQDPFASINPRFKVIDVIKRPLIIHGKVKDNDDIIKTVVSLLEKVGLDQSFLYRYPHELSGGQRQRVSIARALAVEPKVIVCDEAVSALDVSIQKDIIELLKQLQLDFGITYLFITHDMGVINEICDRVAVMKNGEIVELNNTEDIIKHPQSDYAKQLISEVAVIAK, MGSDKIHHHHHHMSNNLLVLQSDFGLVDGAVSAMIGVALQEAPTLGIHNLTHEITPYNIFEASYRLFQTVEYWPQGTTFVSVVDPGVGSDRKSVVALTSRNQYIVTPDNGTLSYIKKHVGIKAVREISEIENRRRNTELSYTFHGRDVYAFTGAKLASDHISFEEVGPELAIESIVELPVVETVIEDNLVRGAVDILDVRFGSLWTSITREEFYTLKPEFNDRFEVTIYNNDMLVYQNQVTYGKSFAAVRIGQPIIYINSLYRVGVAINQGSFANAYNVGVGPQWRIEIKKLN, MGSDKIHHHHHHMSNQLENAKNLYLRGIRDGEIKEVHENYMGASYTQHSTGVPDEKEGFAAFFEDFFKRNPKREINIVRAIEDGNFVFVHVHQKLNDGEAEWVTADIFRSDENGRIVEHWDVIDAYPKTIDQTDPIYADFELTDLDKTEDNKKIVRRFLVDVFQNGEIDKFDDYVAANLIQHNQEIAQGGAAYKDYLVDKAVNYDFVFKVMGQGDYVVAYSKVWIAGQDYAHFDIYRLKDGKIVEHWDNKEVMPDKKDLTNLGKF, MGSDKIHHHHHHMSQAKATFSTEHDLNTSEQQAFWQSVVQDTLITADGITLAYMMVKHPQAHTAIVLSSGRVESYLKYQELVFDLYQQGYSVYAIDHRGQGLSDRMTINPHMGHVRRFNDYIDDFALFMQKKVLPQNDKQLMLLGHSMGGAIGTLYLKQHPDIFTAAAFSAPMYGIKLPMPKAFVRWLASKLDTTLNGGEPNYVLGGQNYKPVPFKGNELTHCQSRYQAYRDLYDAAPKLQLGSPTNRWLTESLDAADTCVLATAQIRTPILILQASEDKIVDNAAQNLAVSTHCQLKVIAGAAHEIFMEKDAYRNQALNYALDFFKRFAIKDEDKQAG, MGSDKIHHHHHHMSQHETPLYTGLKKHASRQPVQFHIPGHKKGAGMDPEFRQFIGENALSIDLINIEPLDDLHAPKGIIKQAQDLAAEAFGADHTFFSVQGTSGAIMTMVMAVCGPGDKIIIPRNVHKSIMTAIVFSGAVPIFIHPEIDNELGISHGITLESAKRALTEHPDAKGLLVINPTYFGVAADLKSIVELAHSFDVPVLVDEAHGVHIHFHDELPLSAMQAGADIAATSVHKLGGSLTQSSILNMREGLVSKDRVQSILSMLTTTSTSYLLLASLDVARKRLATEGRQLAEETLKLANQTRDRLNQIEGIYCVGSEILGSKAAYSYDPTKLIISVKSLGLTGHDVEKWLRESFNIEVELSDLYNILCIFTPGDSQNDADRLVEALTEIAQQMSEQDVTHQQTEVLLPEIPLLAMTPRDAFYANTEVIPLKEASGRIIAEFVMVYPPGIPIFIPGEIITEENISYIFKNLDAGLPVQGPEDSTLHMIRVIKEQKAIQ, MGSDKIHHHHHHMSQVIPASSQEKRRERIVSYVTRHGFARVEALAELFEVSAMTIHRDLEALAADNLVERIRGGARSVSPSMSELAVEQRRHLHRTVKEALCTAAARLIPEGAVVAIDDSTTLESLVEKLPQRSPSALITHSLKTMADHRVRAGMSDIRLIACAGLYFAETDSFLGKATSAQLNELSADISFVSTTAVRATGEVPALFHPDMEAADTKRALIGIGSVRVLVVDSSKFGSAGVFKVASIEEFDHIIIDQQCTREQRDLLRNSRAQIHVIDHNGDEILDTPTEEDF, MGSDKIHHHHHHMSQVVIAVLANAGGVGKSTLSVHLAYEVSRRKLKVALLDLDPQRSLDVFCGLEAAEAEKTMFKVLSKDFIGDWALASAWDEPRIEVCQGHPLLAEIANELVIRKRGEYMLADRLQKYSLPHDLVIVDCPATLGMLNVNALAAATHILVPIQLEMKAISGSAELVEWCMNTSEELQLTPKPQILGFVPSMYDETVAMHRQYHSQLPEIALQLDIKLYPKIRSSNEFKNASAHGLPLHKYRNKHPACKDFKQIADDVIQLIKNK, MGSDKIHHHHHHMSRAIPAMPLAPASAALDLSKVKTLVCEPSLPIRQGIRLALNNVGIRDITEATTFLAAHQACKEGDHDFLLLNQEIETNDTAFMVRELRSGALGRDPFILTVMLLSSREEPKVRSAIDCGPDDLLLIPFAPDQLMNRLKAQIERRKPFVVTHDYIGPDRRAAPRPGATSATQFQVPNPVRARGTNVPRDRYDRMKQESIVTISVERIKRLAATMDWECNALTVSAREGRMTPESTYRSLLKLEQVTAELSLRVTKQLGHSTETIDSLTQYLPPVEDGSEQCKLFRC, MGSDKIHHHHHHMSRIENQFTVQFWGVRGSIPSPGPHTVRYGGNTPCISMQAGDKRLVFDAGTGLHVLGQSWLRQMPLEGHIFFTHSHWDHMQGFPFFTPGFVKGNDFHIYGAIAPDGSTIEQRLNDQMLHPNFPVPLQIMQANLKFYDIRPGQPIHIDDVTVETAPLNHPGEAVGYRVNWRGGAVAYITDTEHFPDRLDDNVLWLARNADILVYDSTYTDEEYHSPKTPKIGWGHSTWQEAVKVAQAANVKTLVIYHHDPAHNDDFLDCVGQQASEKFPGAIMAREGMVLQIPTSVALSESFPVSKFST, MGSDKIHHHHHHMSRLVRSATLSRYTEVARSVGLDPLRILAEVGLPRTCLDAGDNLVSANAVCRLLEMSAADSDAEDFGLRMGEGRQLSVLGPLGMAVRDSPTLRDALGAMVRYITLHSEALFLGVEEREGALVIRVSLIVEHAGSTRQADEMVVVSLYRMLQELIGPGWRARRICLSHEAPRSLASHLRVFGRAVDFGCDFNGIVCELKDMDAMPRAARPELAQYAHAYLDSLSARATLSMTENVRRMVLSLLPSGNCSVERVASQLGVDRRTVHRKLLQEGASFSSILDEVRATLALQYLRHLERPVSYVAVLLGFSMQSAFSRWFRDHFGCSPSAWRSEGMQPARPVPRQPLLAASPEQRM, MGSDKIHHHHHHMSRRLPPLNAVKAFEAAARHLSFTRAAEELFVTQAAVSHQIKALEDFLGLKLFRRKNRSLLLTEEGQSYFLDIKDIFTQLSDATDRLLARSAIGSLTVSMSPSFAIQWLVPRLAKFSEKNPDIDVRIKAVDSEEGSLTDDVDVAIYYGQGSWPGLRADKLRNEVLIPVCSPMLLNGHKPLETPADLKHHTLLHDMSRHDWQAWFRQCGVTDVNVNQGPIFSHSSLVLQAAAHGQGVALGYSVLARPDIKAGRLVVPFQEVLVSKDAYYLVCQQNHAELGKIVAFREWMLDMFAEESRSELLPA, MGSDKIHHHHHHMSSQNALYMLIDERLRRDELKLPGLPETAEQVRNAAMDPDCNLHDLCHIIQQDTALTARLIRLANSAYLGGRNKAESLMQALTRIGMRRIRTLALAMAMEQVFKPDNDIVQMFSQQFIVESREIAAAAVVITEDLQHRGIGHRLHQDVALLAGMVSRIGVAPILHMANEFEDSFANPSFIKECITQFSSTLGSNILSYWQFTPNLVQVPLCYYNGRMTLNDAITVNYCDIVHLAGLLTGNVKPNKDSVTLVEYQMLGVIKTDDFWQQESVQKSYRQMLDLLS, MGSDKIHHHHHHMSSSSVLAESCNGSQKKRVFVVGATGYIGKFVVRELVSRGYEVISFARPRSGVNASTTEDETRRQLQGSEVRFGDVSNLESLLRDGIRGEHFDAVVSCLASRNGGIKDSWDIDYQATRNSLDAGMKAGINHFVLLSAICVQKPMLEFQRAKLKFEKELRESGVTYSIVRPTAFFKSIAGQIEKVKNGKPYVMFGDGKLTACKPISEGDLARFITDCLEDPEKQNKILPIGGPGEPVTNLDQALMLFELLGRKPKLKKVPIQIFDVIIPLLTLISKFLPSFAEKAEFARIGKYYCSESMLVWDPVKKRYDADATPSYGTETLRDFYKRVLKEGLAGQELGAHAMF, MGSDKIHHHHHHMSSVHAINQSYWFSTQLPHVESRTTRNSSHAYKTHSHAQFSIGAIEHGETLCHYRNETHHLQAGDLIFIDPQQPHSCNPPPGKMRSYHMLYLDTAWCLDQIAVHCNYQADSLRCNRVVLRDPTLFIRYQHLITLLHRGEITSADSLLNAMLTPVWQQYCLPEPALPHQALQTTTRHVRERLLNNLQESPSLETLADELNLRRETIVRQFRHDTGITPMAFLNNARIEYAKSLLKQGTPLVDTSYQSGFCDQSHFHKTFVQYTSATPGQYARSIFDNK
